Data reported in paper PMC9297526.

Target: human alpha-thrombin (human, UniProt P00734;P00734 328-363;364-622)
Assay: ITC

## GGTTGGTGTGGTTGG (structured_DNA) [TBA]
  Ka: 8.46e+06 M⁻¹
